The text below walks through data of PMC5078997, “Diversity-oriented synthetic strategy for developing a chemical modulator of protein–protein interaction” (Nature Communications, 2016).

The target of this assay is T1, His-tagged human leucyl-tRNA synthetase (LRS) (human, UniProt Q9P2J5 1-1176).
T1 construct: leucyl-tRNA synthetase (LRS), human; also called His-LRS; human LRS; source: laboratory stocks; purified
The assay is described as follows: ELISA; His-tagged human LRS coated on the plate (0.5 ng/ul in 100 mM carbonate buffer, pH 9.6, overnight at 4 °C), blocked with 5% BSA in PBS; GST-tagged human RagD added together with each compound for 3 h; detected with anti-GST and HRP-conjugated secondary antibody, TMB, absorbance at 450 nm. As to conditions: both partners purified. (In general: An ELISA detects its analyte on a solid surface through an enzyme-linked reagent.)

T1 sequence (Q9P2J5 whole entry): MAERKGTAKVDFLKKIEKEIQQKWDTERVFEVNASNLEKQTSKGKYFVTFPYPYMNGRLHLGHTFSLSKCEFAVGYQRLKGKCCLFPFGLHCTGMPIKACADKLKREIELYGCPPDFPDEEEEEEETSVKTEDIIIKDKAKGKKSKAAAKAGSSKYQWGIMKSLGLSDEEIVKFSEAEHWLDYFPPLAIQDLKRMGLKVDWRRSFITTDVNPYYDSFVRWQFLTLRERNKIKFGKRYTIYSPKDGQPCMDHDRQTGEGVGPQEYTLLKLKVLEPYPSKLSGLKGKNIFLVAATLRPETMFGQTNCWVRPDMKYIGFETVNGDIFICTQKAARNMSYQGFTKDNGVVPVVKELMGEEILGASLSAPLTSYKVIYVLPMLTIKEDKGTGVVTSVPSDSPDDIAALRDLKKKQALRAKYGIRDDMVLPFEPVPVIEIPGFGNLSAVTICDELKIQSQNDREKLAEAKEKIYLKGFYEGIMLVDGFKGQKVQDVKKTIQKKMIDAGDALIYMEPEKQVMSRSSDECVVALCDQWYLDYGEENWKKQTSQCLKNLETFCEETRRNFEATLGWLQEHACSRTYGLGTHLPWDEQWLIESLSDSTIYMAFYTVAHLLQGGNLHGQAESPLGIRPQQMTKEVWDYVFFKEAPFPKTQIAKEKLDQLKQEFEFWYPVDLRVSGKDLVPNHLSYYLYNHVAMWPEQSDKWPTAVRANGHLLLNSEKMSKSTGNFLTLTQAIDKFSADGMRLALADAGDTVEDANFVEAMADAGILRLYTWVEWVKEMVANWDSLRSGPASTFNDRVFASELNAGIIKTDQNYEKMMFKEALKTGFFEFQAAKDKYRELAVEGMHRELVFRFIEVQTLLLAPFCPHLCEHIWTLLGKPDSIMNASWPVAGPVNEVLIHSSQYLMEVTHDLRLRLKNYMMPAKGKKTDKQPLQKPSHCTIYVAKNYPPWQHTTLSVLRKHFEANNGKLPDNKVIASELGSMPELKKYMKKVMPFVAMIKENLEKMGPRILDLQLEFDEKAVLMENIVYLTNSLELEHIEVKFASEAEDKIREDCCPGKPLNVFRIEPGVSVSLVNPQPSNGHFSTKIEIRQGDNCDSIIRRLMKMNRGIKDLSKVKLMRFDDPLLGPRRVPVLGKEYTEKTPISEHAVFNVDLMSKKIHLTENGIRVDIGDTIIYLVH

B1: GST (glutathione-S-transferase)-tagged human Ras-related GTP-binding protein D (RagD) (natural protein, UniProt Q9NQL2 1-400, looked up)
chain: MSQVLGKPQPQDEDDAEEEEEEDELVGLADYGDGPDSSDADPDSGTEEGVLDFSDPFSTEVKPRILLMGLRRSGKSSIQKVVFHKMSPNETLFLESTNKICREDVSNSSFVNFQIWDFPGQIDFFDPTFDYEMIFRGTGALIFVIDSQDDYMEALARLHLTVTRAYKVNTDINFEVFIHKVDGLSDDHKIETQRDIHQRANDDLADAGLEKIHLSFYLTSIYDHSIFEAFSKVVQKLIPQLPTLENLLNIFISNSGIEKAFLFDVVSKIYIATDSTPVDMQTYELCCDMIDVVIDISCIYGLKEDGAGTPYDKESTAIIKLNNTTVLYLKEVTKFLALVCFVREESFERKGLIDYNFHCFRKAIHEVFEVRMKVVKSRKVQNRLQKKKRATPNGTPRVLL
notes: also called GST-tagged RagD; source: laboratory stocks; purified
With B1, the binding result is “binds”.
